Results on 15 molecules are retold here after US8889392B2, “Monolignol 4-O-methyltransferases and uses thereof” (Brookhaven Science Associates, LLC, priority 2010, dated 2014).

Sequences and labels used below:
B1: T133I-E165I-F175I: IEMT triple mutant, monolignol 4-O methyltransferase-3 (protein, listed as Clarkia breweri)
chain: MGSTGNAEIQIIPTHSSDEEANLFAMQLASAAVLPMALKAAIELDVLEIMAKSVPPSGYISPAEIAAQLPTTNPEAPVMLDRVLRLLASYSVVTYTLRELPSGKVERLYGLAPVCKFLTKNEDGVSLAPFLLIATDKVLLEPWFYLKDAILEGGIPFNKAYGMNIFDYHGTDHRINKVFNKGMSSNSTITMKKILEMYNGFEGLTTIVDVGGGTGAVASMIVAKYPSINAINFDLPHVIQDAPAFSGVEHLGGDMFDGVPKGDAIFIKWICHDWSDEHCLKLLKNCYAALPDHGKVIVAEYILPPSPDPSIATKVVIHTDALMLAYNPGGKERTEKEFQALAMASGFRGFKVASCAFNTYVMEFLKTA
B2: T133L/L139Q/E165F: IEMT triple mutant variant (protein, listed as Clarkia breweri)
chain: B1 chain with I133L, L139Q, I165F, I175F
B3: IEMT wt: C. breweri (iso)eugenol 4-O-methyltransferase, wild type (GenBank U86760.1, SEQ ID NO: 1) (protein, listed as Clarkia breweri)
chain: B1 chain with I133T, I165E, I175F
B4: T133I-E165I-F175I-F166W-H169F: IEMT penta mutant (MOMT5) (protein)
chain: B1 chain with F166W, H169F
B5: T133I-E165I-F175I-F166W: IEMT tetra mutant derived from MOMT3 (protein)
chain: B1 chain with F166W
B6: T133I-E165I-F175I-F166W-T135N: IEMT penta mutant derived from MOMT3 (protein)
chain: B1 chain with T135N, F166W
B7: T133I-E165I-F175I-H169F: MOMT4 tetra mutant expressed in Arabidopsis (protein)
chain: B1 chain with H169F
B8: T133I-E165I-F175I-F166W-H169W: IEMT penta mutant derived from MOMT3 (protein)
chain: B1 chain with F166W, H169W
B9: T133I-E165I-F175I-Y326F-N327V: IEMT penta mutant derived from MOMT3 (protein)
chain: B1 chain with Y326F, N327V
B10: T133I-E165I-F175I-Y161F: IEMT tetra mutant derived from MOMT3 (protein)
chain: B1 chain with Y161F
B11: T133I-E165I-F175I-Y161W: IEMT tetra mutant derived from MOMT3 (protein)
chain: B1 chain with Y161W
B12: T133I-E165I-F175I-H169M: IEMT tetra mutant derived from MOMT3 (protein)
chain: B1 chain with H169M
B13: T133I-E165I-F175I-A325V: IEMT tetra mutant derived from MOMT3 (protein)
chain: B1 chain with A325V
B14: T133L-E165F: IEMT double mutant variant (protein)
chain: B1 chain with I133L, I165F, I175F

Where a chain is given by its changes, count along the chain named. Numbers in names are those of the source. Where “and” joins values, the source holds several entries; their conditions need not be identical. Identical values can stand only once.

The target of the first data set is T1, horseradish peroxidase (Armoracia rusticana, UniProt P00433).
T1 sequence (P00433 31-338 limits assumed): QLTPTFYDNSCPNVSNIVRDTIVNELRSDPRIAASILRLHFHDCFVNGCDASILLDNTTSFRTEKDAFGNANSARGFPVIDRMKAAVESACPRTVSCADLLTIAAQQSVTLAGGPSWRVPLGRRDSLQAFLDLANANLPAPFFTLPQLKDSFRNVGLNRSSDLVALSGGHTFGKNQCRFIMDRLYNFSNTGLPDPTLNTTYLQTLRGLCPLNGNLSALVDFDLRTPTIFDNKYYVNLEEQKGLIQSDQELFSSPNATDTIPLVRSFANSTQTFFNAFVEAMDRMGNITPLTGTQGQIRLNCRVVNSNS
Put plainly: Peroxidase-catalyzed dehydrogenative polymerization in vitro. Format: biochemical. Particulars: incubation with horseradish peroxidase and H2O2. From the text:
In vitro dehydrogenative polymerization is commonly used as a biomimetic model to explore in vivo lignin formation. Using the novel mutant variants, we produced methylated monolignol—the 4-O-methoxy-coniferyl alcohol, and subjected it to peroxidase-catalyzed dehydrogenative polymerization, compared to the classic p-coniferyl alcohol. […] The oligomer products include a predominant dimer, the β-5 inter subunit linkage, G(8-5)G, and a few minor peaks of the G(8-O-4)G and G(8-8)G dimers.
For `COc1cc(/C=C/CO)ccc1O` [coniferyl alcohol, p-coniferyl alcohol], the conversion and oligomerization entry is “oxidized and conjugated, yielding several oligolignols”.

System in the next data set: not listed separately
Put plainly: Substrate specificity of mutant variants. It counts as biochemical. The conditions noted are these: p-hydroxycinnamyl alcohols and p-hydroxycinnamaldehydes. From the text: Kinetically, the mutant T133L/E165I/F175I equally preferred two major types of monolignols in angiosperms, i.e., coniferyl and sinapyl alcohols, whereas the T133L/L139Q/E165F variant favored coniferyl slightly over the sinapyl alcohol.
In the case of B1, the “activity for lignin monomeric precursors” value is “high activities”.

Regarding B2, the “activity for lignin monomeric precursors” value is given as “high activities”.

On to B3, for which the “activity for lignin monomeric precursors” value was “barely measurable”.

System in another data set: not listed separately
Put plainly: Kinetic parameters for 4-O-methylation of coniferyl alcohol. It counts as biochemical. The conditions noted are these: coniferyl alcohol. The procedure: E. coli transformants were inoculated in 96 well plates. Protein production was induced with 0.2 mM isopropyl β-D-1-thiogalactopyranoside, and the harvested cell cultures were lysed with 60 μl of BugBuster solution per well (Novagen). Enzymatic activity was screened using the lysates directly or after purification of the recombinant protein in a 96 well purification plate.
Screening was performed in a polypropylene microplate (Bio-Rad) containing 50 μl of the reaction in each well, 500 μM p-coniferyl-alcohol substrates, and 500 μM S-adenosyl-L-methionine augmented with (isotopic assay) or without (LC-MS assay) 0.005 μCi of [methyl-^14C]S-adenosyl-L-methionine, and 20 μl of lysates or purified protein (Ni^+ column eluate). (see Bhuiya, M. W. and Liu, C. J. (2010) J. Biol. Chem. 285:277-285 and its supplemental material).
To further optimize the catalytic efficiency of MOMT on the desired para-methylation of monolignols, based on the crystal structure of MOMT3, we identified additional amino acid residues that either directly contact or are proximate to the bound coniferyl alcohol, particularly the residues near the 3-methoxy-buried pocket. They are F130, A134, V138, L139, F157, Y161, N164, F166, Y168, H169, H173, F179, M183, N186, T319, L322, M323, A325, Y326, and N327. We then carried out the next round saturation mutagenesis on the recognized amino acid sites using MOMT3 as the parental template. […] The MOMT4 enzyme predominantly reacted with coniferyl and sinapyl alcohols, with preference for the latter, while the MOMT5 favors for coniferyl alcohol.
B1: the catalytic efficiency was found to be 1245 M⁻¹ s⁻¹ and the “fold increase of catalytic efficiency compared with the wild-type enzyme” value (shortened to “fold increase of catalytic efficiency”) was “more than 70 fold”.

As for B4, the “fold increase of catalytic efficiency” value is approximately 200 fold.

Regarding B5, the “fold increase of catalytic efficiency” value was approximately 200 fold.

The data set is the same for the next values; noted with them: substrate coniferyl alcohol, 4-O-methylation.
Take B1: the Km is 279 µM and 199 µM; the maximal velocity (Vmax) was 556 ± 35 nmol/mg/min and 371 ± 15 nmol/mg/min.

Turning to B6, the Km is 167 ± 11 µM and the Vmax was 431 ± 12 nmol/mg/min.

On to B7, for which the Km was determined as 193 ± 25 µM and the Vmax came to 793 ± 32 nmol/mg/min.

Regarding B8, the Km came to 127 ± 8 µM and the maximal velocity (Vmax) amounted to 392 ± 9 nmol/mg/min.

Take B9: the Km stood at 196 ± 44 µM and the Vmax is 520 ± 25 nmol/mg/min.

B10: the Km came out at 197 ± 21 µM and the Vmax worked out at 642 ± 24 nmol/mg/min.

Regarding B11, the Km was 196 ± 34 µM and the Vmax was found to be 584 ± 37 nmol/mg/min.

B12: the Km stood at 220 ± 27 µM and the Vmax is 629 ± 26 nmol/mg/min.

Turning to B3, the Km came out at 1590 ± 182 µM and the Vmax amounted to 42 ± 4 nmol/mg/min.

Consider B13, for which the Km was 236 ± 50 µM and the Vmax came to 446 ± 33 nmol/mg/min.

As to B4, the Km worked out at 80 ± 6 µM and the Vmax worked out at 440 ± 10 nmol/mg/min.

Turning to B14, the Km was found to be 280 ± 18 µM and the Vmax came to 117 ± 3 nmol/mg/min.

B5: the Km amounted to 117 ± 15 µM and the Vmax stood at 496 ± 8 nmol/mg/min.

System in a further data set: not listed separately
Description: Kinetic parameters for 4-O-methylation of sinapyl alcohol. Format: biochemical. The conditions noted are these: sinapyl alcohol.
On to B1, for which the catalytic efficiency amounted to 1463 M⁻¹ s⁻¹ and the “fold increase of catalytic efficiency” value is recorded as “more than 70 fold”.

In the case of B4, the “fold increase of catalytic efficiency” value is approximately 200 fold.

In the case of B5, the “fold increase of catalytic efficiency” value is given as approximately 200 fold.

The same data set, now with this note: substrate sinapyl alcohol, 4-O-methylation.
B1: the Km is 120 µM and 119 µM; the Vmax is 275 ± 10 nmol/mg/min and 260 ± 6 nmol/mg/min.

With B6, the Km was 54 ± 14 µM and the Vmax is 115 ± 9 nmol/mg/min.

For the molecule B7, the Michaelis constant (Km) turned out to be 68 ± 11 µM and the Vmax stood at 408 ± 17 nmol/mg/min.

As for B8, the Km was determined as 67 ± 10 µM and the maximal velocity (Vmax) was determined as 160 ± 12 nmol/mg/min.

As to B9, the Km came to 340 ± 30 µM and the Vmax is 429 ± 15 nmol/mg/min.

In the case of B10, the Km worked out at 206 ± 25 µM and the Vmax stood at 289 ± 12 nmol/mg/min.

For B11, the Km worked out at 219 ± 19 µM and the Vmax turned out to be 259 ± 8 nmol/mg/min.

Consider B12, for which the Km came out at 89 ± 10 µM and the Vmax is 370 ± 11 nmol/mg/min.

As to B3, the Km amounted to 1500 ± 214 µM and the Vmax worked out at 45 ± 4 nmol/mg/min.

Consider B13, for which the Km turned out to be 97 ± 7 µM and the Vmax is 214 ± 4 nmol/mg/min.

With B4, the Km was determined as 37 ± 7 µM and the Vmax is 124 ± 7 nmol/mg/min.

Take B14: the Km was 382 ± 32 µM and the Vmax amounted to 103 ± 4 nmol/mg/min.

As for B5, the Michaelis-Menten constant (Km) was 47 ± 8 µM and the Vmax was found to be 147 ± 4 nmol/mg/min.
